According to article PMC10090947:

Tests used:
[1] = biological target: Large tumor suppressor 1 (LATS1), endogenous (UniProt O95835); test: streptavidin affinity purification and MS (MS1 intensity); settings: three independent biological replicates; parent: est. -0.1; read off a plot
[2] = biological target: nonreceptor tyrosine phosphatase 14 (PTPN14), endogenous (UniProt Q15678); test: as above; settings: three independent biological replicates; parent: est. -0.1; read off a plot
TP53BP2 = TP53BP2 (UniProt Q13625); test: AP-MS (MS1 intensity); settings: parent: est. 33; read off a plot
Chain of UniProt Q13625 (Q13625 whole entry): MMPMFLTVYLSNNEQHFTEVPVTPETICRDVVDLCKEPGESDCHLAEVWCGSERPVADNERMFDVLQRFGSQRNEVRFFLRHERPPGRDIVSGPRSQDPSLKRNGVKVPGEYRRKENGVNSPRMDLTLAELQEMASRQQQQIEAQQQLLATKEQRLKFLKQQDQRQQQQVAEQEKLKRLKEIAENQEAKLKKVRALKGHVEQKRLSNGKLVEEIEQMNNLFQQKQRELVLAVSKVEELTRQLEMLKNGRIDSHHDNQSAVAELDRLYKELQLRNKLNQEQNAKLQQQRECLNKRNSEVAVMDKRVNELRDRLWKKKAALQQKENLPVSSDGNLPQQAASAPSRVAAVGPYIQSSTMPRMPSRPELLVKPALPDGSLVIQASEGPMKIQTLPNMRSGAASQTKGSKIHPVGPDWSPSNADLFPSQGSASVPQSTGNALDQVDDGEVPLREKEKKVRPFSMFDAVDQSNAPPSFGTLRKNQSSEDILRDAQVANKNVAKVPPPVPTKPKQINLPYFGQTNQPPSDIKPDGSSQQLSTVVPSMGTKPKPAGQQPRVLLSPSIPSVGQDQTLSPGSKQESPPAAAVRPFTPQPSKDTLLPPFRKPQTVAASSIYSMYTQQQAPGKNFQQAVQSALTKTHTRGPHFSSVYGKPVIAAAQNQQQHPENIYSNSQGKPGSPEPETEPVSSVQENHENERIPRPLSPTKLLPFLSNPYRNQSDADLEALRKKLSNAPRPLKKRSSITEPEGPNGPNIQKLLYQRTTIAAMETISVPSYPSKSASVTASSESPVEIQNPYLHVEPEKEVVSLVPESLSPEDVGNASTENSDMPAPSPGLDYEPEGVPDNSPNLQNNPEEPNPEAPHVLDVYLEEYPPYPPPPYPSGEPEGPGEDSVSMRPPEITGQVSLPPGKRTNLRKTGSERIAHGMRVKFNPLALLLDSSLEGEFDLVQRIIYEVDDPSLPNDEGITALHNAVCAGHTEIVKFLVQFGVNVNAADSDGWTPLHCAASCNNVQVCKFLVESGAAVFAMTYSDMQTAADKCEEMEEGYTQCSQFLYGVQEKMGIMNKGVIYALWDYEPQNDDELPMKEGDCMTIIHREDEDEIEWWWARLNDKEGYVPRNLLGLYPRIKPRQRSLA

CCDC85C = CCDC85C (UniProt A6NKD9); test: AP-MS (MS1 intensity); settings: parent: est. 32; read off a plot
Chain of UniProt A6NKD9 (A6NKD9 whole entry): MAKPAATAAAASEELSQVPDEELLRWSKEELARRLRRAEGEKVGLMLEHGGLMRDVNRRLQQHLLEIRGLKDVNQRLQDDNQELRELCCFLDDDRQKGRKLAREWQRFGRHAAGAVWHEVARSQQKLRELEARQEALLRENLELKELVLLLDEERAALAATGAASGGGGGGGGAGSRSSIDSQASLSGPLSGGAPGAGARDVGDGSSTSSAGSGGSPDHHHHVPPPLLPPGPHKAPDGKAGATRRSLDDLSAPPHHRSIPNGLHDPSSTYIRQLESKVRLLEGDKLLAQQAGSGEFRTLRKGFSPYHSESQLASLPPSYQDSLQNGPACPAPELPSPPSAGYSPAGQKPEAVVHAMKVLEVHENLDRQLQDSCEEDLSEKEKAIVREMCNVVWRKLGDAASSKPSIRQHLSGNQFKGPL

AMOTL1 = AMOTL1 (UniProt Q8IY63); test: AP-MS (MS1 intensity); settings: parent: est. 34; read off a plot
Chain of UniProt Q8IY63 (Q8IY63 whole entry): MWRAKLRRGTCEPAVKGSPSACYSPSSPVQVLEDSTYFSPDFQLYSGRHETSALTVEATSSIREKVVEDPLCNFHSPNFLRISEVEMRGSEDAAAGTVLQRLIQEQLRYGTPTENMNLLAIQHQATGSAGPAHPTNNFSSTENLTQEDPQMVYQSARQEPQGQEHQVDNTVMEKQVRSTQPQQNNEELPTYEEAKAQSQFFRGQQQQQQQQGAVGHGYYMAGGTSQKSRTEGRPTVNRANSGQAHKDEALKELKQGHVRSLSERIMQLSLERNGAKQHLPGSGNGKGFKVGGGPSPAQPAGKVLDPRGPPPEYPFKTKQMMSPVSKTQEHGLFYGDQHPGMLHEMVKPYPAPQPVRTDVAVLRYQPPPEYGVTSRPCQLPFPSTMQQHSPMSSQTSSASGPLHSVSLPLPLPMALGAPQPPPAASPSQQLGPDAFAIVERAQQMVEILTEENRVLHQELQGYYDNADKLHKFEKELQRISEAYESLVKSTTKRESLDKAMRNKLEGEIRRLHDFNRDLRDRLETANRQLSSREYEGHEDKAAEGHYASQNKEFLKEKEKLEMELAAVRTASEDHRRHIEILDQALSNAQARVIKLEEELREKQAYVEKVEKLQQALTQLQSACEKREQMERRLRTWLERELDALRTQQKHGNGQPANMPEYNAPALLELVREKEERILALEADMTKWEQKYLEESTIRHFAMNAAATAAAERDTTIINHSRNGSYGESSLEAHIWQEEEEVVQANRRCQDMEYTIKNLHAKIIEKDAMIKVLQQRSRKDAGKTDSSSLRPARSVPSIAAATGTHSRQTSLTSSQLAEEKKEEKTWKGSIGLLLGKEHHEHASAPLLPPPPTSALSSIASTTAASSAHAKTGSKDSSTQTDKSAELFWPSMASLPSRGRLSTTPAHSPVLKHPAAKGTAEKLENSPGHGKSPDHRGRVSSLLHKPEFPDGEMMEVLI

[3] = biological target: Large tumor suppressor 1 (LATS1), endogenous (UniProt O95835); test: Strep AP-MS; settings: three biological replicates; parent: est. 0.0; read off a plot
[4] = biological target: nonreceptor tyrosine phosphatase 14 (PTPN14), endogenous (UniProt Q15678); test: Strep AP-MS; settings: three biological replicates; parent: est. 0.0; read off a plot

Chain of UniProt O95835 (O95835 whole entry): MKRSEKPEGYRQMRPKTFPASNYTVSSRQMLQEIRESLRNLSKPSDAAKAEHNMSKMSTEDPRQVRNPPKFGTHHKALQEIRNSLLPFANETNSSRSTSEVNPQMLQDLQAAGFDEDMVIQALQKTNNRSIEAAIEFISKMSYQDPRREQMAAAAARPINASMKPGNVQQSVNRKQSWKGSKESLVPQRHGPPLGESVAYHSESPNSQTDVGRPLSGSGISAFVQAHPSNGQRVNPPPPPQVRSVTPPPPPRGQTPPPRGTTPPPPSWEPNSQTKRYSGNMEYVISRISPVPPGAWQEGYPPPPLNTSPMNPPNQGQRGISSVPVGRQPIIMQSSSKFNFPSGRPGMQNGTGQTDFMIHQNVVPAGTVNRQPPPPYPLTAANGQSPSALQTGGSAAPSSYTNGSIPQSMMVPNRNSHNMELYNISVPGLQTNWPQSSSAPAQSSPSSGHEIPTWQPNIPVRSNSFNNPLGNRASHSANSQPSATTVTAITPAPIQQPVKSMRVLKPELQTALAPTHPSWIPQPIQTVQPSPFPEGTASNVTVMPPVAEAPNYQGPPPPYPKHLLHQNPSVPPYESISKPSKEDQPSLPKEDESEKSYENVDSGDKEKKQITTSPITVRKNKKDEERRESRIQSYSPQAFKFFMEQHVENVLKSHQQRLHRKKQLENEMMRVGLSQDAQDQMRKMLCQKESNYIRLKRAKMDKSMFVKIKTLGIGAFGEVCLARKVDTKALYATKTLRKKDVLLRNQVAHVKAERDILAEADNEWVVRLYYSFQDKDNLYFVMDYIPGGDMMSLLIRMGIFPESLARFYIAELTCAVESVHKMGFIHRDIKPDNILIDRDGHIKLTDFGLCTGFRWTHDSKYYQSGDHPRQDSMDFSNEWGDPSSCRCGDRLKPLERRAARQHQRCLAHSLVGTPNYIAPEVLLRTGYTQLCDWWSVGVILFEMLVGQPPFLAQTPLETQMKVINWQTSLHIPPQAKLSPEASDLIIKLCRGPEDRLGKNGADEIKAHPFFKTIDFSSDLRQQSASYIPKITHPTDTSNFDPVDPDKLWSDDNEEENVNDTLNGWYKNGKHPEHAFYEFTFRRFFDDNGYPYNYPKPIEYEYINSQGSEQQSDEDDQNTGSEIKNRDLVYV
Chain of UniProt Q15678 (Q15678 whole entry): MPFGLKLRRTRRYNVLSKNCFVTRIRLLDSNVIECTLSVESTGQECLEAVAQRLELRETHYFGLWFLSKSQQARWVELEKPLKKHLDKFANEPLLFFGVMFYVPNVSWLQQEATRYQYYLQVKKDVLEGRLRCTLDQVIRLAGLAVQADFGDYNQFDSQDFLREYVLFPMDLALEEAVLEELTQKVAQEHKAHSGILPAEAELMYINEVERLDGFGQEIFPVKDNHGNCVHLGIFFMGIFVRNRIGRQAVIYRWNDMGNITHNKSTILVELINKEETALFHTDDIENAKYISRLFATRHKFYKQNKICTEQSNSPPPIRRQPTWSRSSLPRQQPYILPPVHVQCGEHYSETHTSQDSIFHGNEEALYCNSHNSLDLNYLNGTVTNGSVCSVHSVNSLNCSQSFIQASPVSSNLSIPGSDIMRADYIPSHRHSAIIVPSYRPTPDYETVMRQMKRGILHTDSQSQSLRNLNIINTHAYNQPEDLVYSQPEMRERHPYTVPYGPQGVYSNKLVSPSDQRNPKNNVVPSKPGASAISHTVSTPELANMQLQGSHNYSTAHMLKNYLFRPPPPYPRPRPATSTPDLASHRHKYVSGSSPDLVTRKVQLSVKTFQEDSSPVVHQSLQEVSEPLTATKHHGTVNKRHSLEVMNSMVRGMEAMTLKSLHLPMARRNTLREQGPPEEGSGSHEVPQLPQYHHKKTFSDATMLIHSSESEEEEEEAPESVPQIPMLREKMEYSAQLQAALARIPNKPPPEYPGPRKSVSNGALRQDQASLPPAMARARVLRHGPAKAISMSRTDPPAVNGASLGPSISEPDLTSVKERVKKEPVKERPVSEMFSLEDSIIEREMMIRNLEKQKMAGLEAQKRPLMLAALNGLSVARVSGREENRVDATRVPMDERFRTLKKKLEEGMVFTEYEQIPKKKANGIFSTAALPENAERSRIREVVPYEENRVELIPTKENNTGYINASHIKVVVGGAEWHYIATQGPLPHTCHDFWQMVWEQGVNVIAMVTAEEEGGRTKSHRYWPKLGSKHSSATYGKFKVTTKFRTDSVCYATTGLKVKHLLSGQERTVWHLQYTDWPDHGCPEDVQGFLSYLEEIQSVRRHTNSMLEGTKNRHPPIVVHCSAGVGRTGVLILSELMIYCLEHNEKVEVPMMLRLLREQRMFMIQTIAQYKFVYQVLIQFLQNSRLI

| Substance | other: log2(mutant vs WT) [1] | other: log2(mutant vs WT) [2] | response (log2(Intensity)) (TP53BP2) | response (log2(Intensity)) (CCDC85C) | response (log2(Intensity)) (AMOTL1) | other: log2(mutant vs WT) [3] | other: log2(mutant vs WT) [4] |
| --- | --- | --- | --- | --- | --- | --- | --- |
| Strep‐HA YAP1 (wild type) 5SA | -0.6 | 0 | – | – | – | – | – |
| Strep‐HA YAP1 (wild type) S367A | – | – | 30 | 28 | 34 | – | – |
| Strep‐HA YAP1 (wild type) ΔWW1 | -7.2 | -3.4 | – | – | – | -7.2 | -3.4 |
| Strep‐HA YAP1 (wild type) ΔWW1/2 | -7 | -9.2 | – | – | – | -7 | -9.2 |
| Strep‐HA YAP1 (wild type) ΔWW2 | -3.6 | -7.7 | – | – | – | -3.6 | -7.7 |
